Test results as given in article PMC6167014 (Cancer research, 2017).

B3: His-BAP1-ULD (601–729) WT (domain or fragment, human, UniProt Q92560 601-729, looked up)
chain: KEVVEATDSREKTGMVRPGEPLSGEKYSPKELLALLKCVEAEIANYEACLKEEVEKRKKFKIDDQRRTHNYDEFICTFISMLAQEGMLANLVEQNISVRRRQGVSIGRLHKQRKPDRRKRSRPYKAKRQ

How the values were obtained:
GST-BAP1 (full length) = target: T1, GST-BAP1 (full length) (human, UniProt Q92560 1-729); assay: pull-down
T1 sequence (looked up): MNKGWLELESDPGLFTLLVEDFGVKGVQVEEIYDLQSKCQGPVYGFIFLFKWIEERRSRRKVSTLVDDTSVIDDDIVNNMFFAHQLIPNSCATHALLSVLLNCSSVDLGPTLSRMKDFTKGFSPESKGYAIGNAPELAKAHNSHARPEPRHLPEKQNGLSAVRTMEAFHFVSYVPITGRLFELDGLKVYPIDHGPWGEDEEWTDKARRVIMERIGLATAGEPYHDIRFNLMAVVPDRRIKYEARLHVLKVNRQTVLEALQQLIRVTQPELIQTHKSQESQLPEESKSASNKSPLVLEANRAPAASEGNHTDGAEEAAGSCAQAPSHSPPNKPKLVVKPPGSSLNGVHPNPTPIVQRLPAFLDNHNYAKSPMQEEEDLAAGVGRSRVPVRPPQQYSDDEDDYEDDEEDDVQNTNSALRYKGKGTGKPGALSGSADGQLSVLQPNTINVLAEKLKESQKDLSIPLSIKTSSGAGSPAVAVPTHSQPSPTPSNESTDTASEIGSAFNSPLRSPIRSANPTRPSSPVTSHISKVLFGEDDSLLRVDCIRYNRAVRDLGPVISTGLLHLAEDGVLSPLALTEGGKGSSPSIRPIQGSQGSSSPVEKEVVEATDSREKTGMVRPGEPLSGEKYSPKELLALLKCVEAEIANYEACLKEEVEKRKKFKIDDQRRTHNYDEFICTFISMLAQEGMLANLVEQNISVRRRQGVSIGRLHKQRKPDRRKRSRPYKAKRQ

[1] = target: T2, His-BAP1-FL ∆E283-S285 (baculovirus) (human, UniProt Q92560 1-729, ∆E283-S285); assay: co-IP
T2 sequence (looked up): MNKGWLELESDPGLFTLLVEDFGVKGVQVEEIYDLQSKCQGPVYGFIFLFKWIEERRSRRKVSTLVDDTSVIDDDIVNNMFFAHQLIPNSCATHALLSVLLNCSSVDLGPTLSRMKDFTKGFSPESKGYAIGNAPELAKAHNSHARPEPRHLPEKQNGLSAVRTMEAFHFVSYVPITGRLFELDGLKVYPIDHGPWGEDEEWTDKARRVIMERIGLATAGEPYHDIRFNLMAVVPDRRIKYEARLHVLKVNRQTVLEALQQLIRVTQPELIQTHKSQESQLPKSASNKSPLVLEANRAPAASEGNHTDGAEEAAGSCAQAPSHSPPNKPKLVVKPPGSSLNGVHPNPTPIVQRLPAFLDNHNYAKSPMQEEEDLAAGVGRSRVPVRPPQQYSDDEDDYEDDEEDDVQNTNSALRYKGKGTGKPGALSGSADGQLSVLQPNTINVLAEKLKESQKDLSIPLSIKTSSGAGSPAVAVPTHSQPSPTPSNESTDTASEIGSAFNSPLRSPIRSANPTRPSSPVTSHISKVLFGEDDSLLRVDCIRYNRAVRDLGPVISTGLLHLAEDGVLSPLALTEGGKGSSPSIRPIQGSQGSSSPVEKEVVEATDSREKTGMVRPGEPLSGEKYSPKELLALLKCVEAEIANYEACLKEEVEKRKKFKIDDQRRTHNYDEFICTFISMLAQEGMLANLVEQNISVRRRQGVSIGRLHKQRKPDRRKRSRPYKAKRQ

GST-BAP1-ULD = target: T3, GST-BAP1-ULD (human, UniProt Q92560 601-729); assay: pull-down
T3 sequence (looked up): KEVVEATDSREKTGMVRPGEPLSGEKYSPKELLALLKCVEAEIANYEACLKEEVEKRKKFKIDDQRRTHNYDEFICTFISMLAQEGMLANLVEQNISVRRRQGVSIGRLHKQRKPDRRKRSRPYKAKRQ

[2] = target: B3; assay: pull-down
GST-BAP1-UCH (1–250 aa) = target: T4, GST-BAP1-UCH (1–250 aa) (human, UniProt Q92560 1-250); assay: pull-down
T4 sequence (looked up): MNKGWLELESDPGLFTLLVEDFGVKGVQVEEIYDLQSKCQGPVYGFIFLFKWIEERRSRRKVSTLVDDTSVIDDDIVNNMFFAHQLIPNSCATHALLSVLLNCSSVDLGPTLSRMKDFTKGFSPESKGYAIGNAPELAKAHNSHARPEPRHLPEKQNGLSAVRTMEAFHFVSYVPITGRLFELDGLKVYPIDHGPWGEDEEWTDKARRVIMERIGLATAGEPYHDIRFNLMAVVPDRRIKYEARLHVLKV

B1: Flag-ASXL2 (261–649 aa) (baculovirus) (domain or fragment, human, UniProt Q76L83 261-649, looked up)
chain: MKRTKCADIDVETPDSILVNTNLRALINKHTFSVLPGDCQQRLLLLLPEVDRQVGPDGLMKLNGSALNNEFFTSAAQGWKERLSEGEFTPEMQVRIRQEIEKEKKVEPWKEQFFESYYGQSSGLSLEDSKKLTASPSDPKVKKTPAEQPKSMPVSEASLIRIVPVVSQSECKEEALQMSSPGRKEECESQGEVQPNFSTSSEPLLSSALNTHELSSILPIKCPKDEDLLEQKPVTSAEQESEKNHLTTASNYNKSESQESLVTSPSKPKSPGVEKPIVKPTAGAGPQETNMKEPLATLVDQSPESLKRKSSLTQEEAPVSWEKRPRVTENRQHQQPFQVSPQPFLNRGDRIQVRKVPPLKIPVSRISPMPFHPSQVSPRARFPVSITSP
- binding result (GST-BAP1 (full length)): binds
- binding result [1]: binds

B2: His-ASXL2-AB (261–381 aa) (domain or fragment, human, UniProt Q76L83 261-381, looked up)
chain: MKRTKCADIDVETPDSILVNTNLRALINKHTFSVLPGDCQQRLLLLLPEVDRQVGPDGLMKLNGSALNNEFFTSAAQGWKERLSEGEFTPEMQVRIRQEIEKEKKVEPWKEQFFESYYGQS
- binding result (GST-BAP1-ULD): binds
- binding result (GST-BAP1 (full length)): binds
- binding result [2]: binds

Binder: B3
- binding result (GST-BAP1-UCH (1–250 aa)): binds

B4: His-BAP1-ULD F660P (domain or fragment, human, UniProt Q92560 601-729, looked up)
chain: KEVVEATDSREKTGMVRPGEPLSGEKYSPKELLALLKCVEAEIANYEACLKEEVEKRKKPKIDDQRRTHNYDEFICTFISMLAQEGMLANLVEQNISVRRRQGVSIGRLHKQRKPDRRKRSRPYKAKRQ
- binding result (GST-BAP1-UCH (1–250 aa)): binds

B5: His-BAP1-ULD L650P (domain or fragment, human, UniProt Q92560 601-729, looked up)
chain: KEVVEATDSREKTGMVRPGEPLSGEKYSPKELLALLKCVEAEIANYEACPKEEVEKRKKFKIDDQRRTHNYDEFICTFISMLAQEGMLANLVEQNISVRRRQGVSIGRLHKQRKPDRRKRSRPYKAKRQ
- binding result (GST-BAP1-UCH (1–250 aa)): binds

B6: His-BAP1-ULD ∆K637-C638 (sub of N) (domain or fragment, human, UniProt Q92560 601-729, looked up)
chain: KEVVEATDSREKTGMVRPGEPLSGEKYSPKELLALLNVEAEIANYEACLKEEVEKRKKFKIDDQRRTHNYDEFICTFISMLAQEGMLANLVEQNISVRRRQGVSIGRLHKQRKPDRRKRSRPYKAKRQ
- binding result (GST-BAP1-UCH (1–250 aa)): binds
